{"source": "paper PMC4051119", "about": "“Bacterial actin MreB forms antiparallel double filaments” (eLife, 2014)", "key": {"[1]": {"target": "the molecule itself", "assay": "negative-stain electron microscopy; pre-assembled filaments (CcMreB 0.25 mg/ml, V118E 0.13 mg/ml) in 12.5 mM Tris-HCl 7.5, 2 mM ATP, 4 mM MgCl2 on a monolayer of E. coli total lipid extract, 2% uranyl acetate; 2D averaging"}, "[2]": {"target": "the molecule itself", "assay": "crystal structure; C. crescentus MreB constructs crystallised at 10-30 mg/ml, empty or with ADP or AMPPNP, no inhibitor; filament or monomer state read from the crystal packing"}, "[3]": {"target": "the molecule itself", "assay": "crystal structure; C. crescentus MreB constructs crystallised at 10-30 mg/ml, empty or with ADP or AMPPNP, no inhibitor; filament or monomer state read from the crystal packing", "remark": "listed apart in the source"}, "[4]": {"target": "the molecule itself", "assay": "cryo-electron microscopy and tomography; MreB 1 mg/ml with 1 mg/ml liposomes (E. coli total lipid extract) or lipid tubes (plus 30% C24:1 β-D galactosyl ceramide), 2 mM ATP, 4 mM MgCl2; CcMreB in 12.5 mM Tris-HCl 7.5, TmMreB in 100 mM Tris-HCl 7.5, 200 mM NaCl; 2D and subtomogram averaging"}}}
{"protein": "Full-length, untagged MreB from C. crescentus (CcMreB) (natural protein, Caulobacter crescentus, UniProt A0A0H3C7V4 1-347, looked up, MreB, Caulobacter crescentus, GenBank ACL95077.1, M1-A347; Forms filaments (double protofilaments); number of copies not defined; also called Caulobacter MreB; pFE403 (plasmid); source: E. coli C41, purified (HisTrap, elution by SUMO protease, GST column, S300HR size exclusion)) MFSSLFGVISNDIAIDLGTANTLIYQKGKGIVLNEPSVVALRNVGGRKVVHAVGIEAKQMLGRTPGHMEAIRPMRDGVIADFEVAEEMIKYFIRKVHNRKGFVNPKVIVCVPSGATAVERRAINDSCLNAGARRVGLIDEPMAAAIGAGLPIHEPTGSMVVDIGGGTTEVAVLSLSGIVYSRSVRVGGDKMDEAIISYMRRHHNLLIGETTAERIKKEIGTARAPADGEGLSIDVKGRDLMQGVPREVRISEKQAADALAEPVGQIVEAVKVALEATPPELASDIADKGIMLTGGGALLRGLDAEIRDHTGLPVTVADDPLSCVALGCGKVLEHPKWMKGVLESTLA", "values": [{"measurement": "binding result", "setting": "[1]", "value": "binds"}]}
{"protein": "CcMreB-V118E (inter-protofilament mutant V118E in full-length CcMreB) (natural protein, Caulobacter crescentus, UniProt A0A0H3C7V4 1-347, looked up, MreB, Caulobacter crescentus, GenBank ACL95077.1, full length with V118E; also called pFE542 (plasmid); source: E. coli C41, purified (HisTrap, elution by SUMO protease, GST column, S300HR size exclusion); not shown: His-SUMO, N-terminal, cleaved) MFSSLFGVISNDIAIDLGTANTLIYQKGKGIVLNEPSVVALRNVGGRKVVHAVGIEAKQMLGRTPGHMEAIRPMRDGVIADFEVAEEMIKYFIRKVHNRKGFVNPKVIVCVPSGATAEERRAINDSCLNAGARRVGLIDEPMAAAIGAGLPIHEPTGSMVVDIGGGTTEVAVLSLSGIVYSRSVRVGGDKMDEAIISYMRRHHNLLIGETTAERIKKEIGTARAPADGEGLSIDVKGRDLMQGVPREVRISEKQAADALAEPVGQIVEAVKVALEATPPELASDIADKGIMLTGGGALLRGLDAEIRDHTGLPVTVADDPLSCVALGCGKVLEHPKWMKGVLESTLA", "values": [{"measurement": "binding result", "setting": "[1]", "value": "binds"}]}
{"protein": "ΔCcMreBh (M-I9-CcMreB-A347-GSHHHHHH) (domain or fragment, Caulobacter crescentus, start methionine placed before I9; MreB, Caulobacter crescentus, GenBank ACL95077.1, I9-A347 (N-terminal amphipathic helix deleted); Electrospray mass 36,916 Da (36,911 Da expected); also called CCM2; source: E. coli C41(DE3), purified (HisTrap, Sephacryl S300HR)) MISNDIAIDLGTANTLIYQKGKGIVLNEPSVVALRNVGGRKVVHAVGIEAKQMLGRTPGHMEAIRPMRDGVIADFEVAEEMIKYFIRKVHNRKGFVNPKVIVCVPSGATAVERRAINDSCLNAGARRVGLIDEPMAAAIGAGLPIHEPTGSMVVDIGGGTTEVAVLSLSGIVYSRSVRVGGDKMDEAIISYMRRHHNLLIGETTAERIKKEIGTARAPADGEGLSIDVKGRDLMQGVPREVRISEKQAADALAEPVGQIVEAVKVALEATPPELASDIADKGIMLTGGGALLRGLDAEIRDHTGLPVTVADDPLSCVALGCGKVLEHPKWMKGVLESTLA", "values": [{"measurement": "binding result", "setting": "[2]", "value": "binds"}]}
{"protein": "ΔCcMreBdh (M-I9-CcMreB(F102S, V103G)-A347-GSHHHHHH) (domain or fragment, Caulobacter crescentus, start methionine placed before I9; MreB, Caulobacter crescentus, GenBank ACL95077.1, I9-A347, hydrophobic loop mutated (F102S, V103G); Electrospray mass 36,813 Da (36,809 Da expected); also called pFE397 (plasmid); source: E. coli C41(DE3), purified (HisTrap, Sephacryl S300HR)) MISNDIAIDLGTANTLIYQKGKGIVLNEPSVVALRNVGGRKVVHAVGIEAKQMLGRTPGHMEAIRPMRDGVIADFEVAEEMIKYFIRKVHNRKGSGNPKVIVCVPSGATAVERRAINDSCLNAGARRVGLIDEPMAAAIGAGLPIHEPTGSMVVDIGGGTTEVAVLSLSGIVYSRSVRVGGDKMDEAIISYMRRHHNLLIGETTAERIKKEIGTARAPADGEGLSIDVKGRDLMQGVPREVRISEKQAADALAEPVGQIVEAVKVALEATPPELASDIADKGIMLTGGGALLRGLDAEIRDHTGLPVTVADDPLSCVALGCGKVLEHPKWMKGVLESTLA", "values": [{"measurement": "binding result", "setting": "[3]", "value": "binds"}]}
{"protein": "Full-length untagged Thermotoga maritima MreB1 (TmMreB) (natural protein, UniProt Q9WZ57 1-336, looked up, MreB1, Thermotoga maritima, GenBank AAD35673.1, M1-G336; called non-tagged / untagged; also called pFE349 (plasmid); source: expressed as an Intein-CBD-tagged fusion from plasmid pFE349 and purified as described previously (Salje et al., 2011)) MLRKDIGIDLGTANTLVFLRGKGIVVNEPSVIAIDSTTGEILKVGLEAKNMIGKTPATIKAIRPMRDGVIADYTVALVMLRYFINKAKGGMNLFKPRVVIGVPIGITDVERRAILDAGLEAGASKVFLIEEPMAAAIGSNLNVEEPSGNMVVDIGGGTTEVAVISLGSIVTWESIRIAGDEMDEAIVQYVRETYRVAIGERTAERVKIEIGNVFPSKENDELETTVSGIDLSTGLPRKLTLKGGEVREALRSVVVAIVESVRTTLEKTPPELVSDIIERGIFLTGGGSLLRGLDTLLQKETGISVIRSEEPLTAVAKGAGMVLDKVNILKKLQGAG", "values": [{"measurement": "binding result", "setting": "[4]", "value": "binds"}]}
